Data on 99 substances can be found in the supplement of paper PMC12042874.

± gives the uncertainty stated by the source.

A short description of this series: amyloid nucleation score (Sup35N fusion, yeast selection) (log enrichment); library NNK3; higher = more nucleation; inactive = no reads after selection. The procedure, abridged:
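Yeast lacking psi expressed peptides of 20 random codons fused to Sup35N, received 100 μM copper sulfate for 24 hours, and were then grown for 7 days at 30°C on medium lacking adenine and uracil. Illumina sequencing of input and output plasmid inserts provided the reads. Nucleation scores are DiMSum log enrichments of output over input, centred on the mode of non-aggregating sequences. Any sequence with under 100 input reads was excluded.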
In the case of RINWTMMCKTFLRFINKS, the amyloid nucleation score entry was “inactive”.
As for RIPKDEYTNPGRA, the amyloid nucleation score result was “inactive”.
Turning to RIRALLD, the amyloid nucleation score result is “inactive”.
RISLCVHFILFCFPSSRQSL had an amyloid nucleation score of 0.815 ± 0.12.
To RISYMSGDYRPSKCACVYAE belongs “inactive”; to RIYGHVLSRDANFVRLWVGT, “inactive”; to RKACYLLVI, “inactive”.
Turning to RKCCGVLSLSASLHDRDDGC, the amyloid nucleation score entry is “inactive”.
To RKGSVKEFRYNMSNLESVCS belongs “inactive”; to RKIHLLGHWLFRSMYRRRFW, “inactive”; to RKIHVAMVLRIEYSMYGSPA, “inactive”.
To RKLFGSHS belongs “inactive”; to RKLGPSHQWNHRWGFSVRSC, “inactive”.
Turning to RKNSDLTYSNSVNLTCACRT, the amyloid nucleation score stood at 0.434 ± 0.18.
Take RKVNHFNE: the amyloid nucleation score entry is “inactive”.
In the case of RKWSNR, the amyloid nucleation score entry was “inactive”.
Regarding RLCHRWFLDRLTICY, the amyloid nucleation score result was “inactive”.
As for RLCNHKILDPACVLTSQVPI, the amyloid nucleation score entry is “inactive”.
As for RLDVFYEMLIMYKEQYGMVR, the entry is “inactive”; as for RLFLTVHPTDSILENEAV, “inactive”; as for RLFMDLYVFTTRVFNIFQFV, “inactive”.
As for RLGRSLRLIVMITG, the entry is “inactive”.
To RLITNNVTS belongs “inactive”; to RLIWVDLALMFMFMYFLVRQ, “inactive”.
For the substance RLKCHNNMNYSSYDLH, the amyloid nucleation score result was “inactive”.
To RLLDGMTSVLC belongs “inactive”.
With RLLHCGRILWGFVNDLMIML, the amyloid nucleation score entry is “inactive”.
To RLLIMSGNNGLLGPSYNAIV belongs -0.01 ± 0.78.
As for RLLVTLQ, the entry is “inactive”; as for RLMVL, “inactive”.
To RLSGKTPCAK belongs “inactive”.
On to RLSLKSFVRFQRLCP, for which the amyloid nucleation score entry was “inactive”.
To RLTARLINGMDY belongs 1.27 ± 0.1; to RLTHLLHCYTI, “inactive”.
For RLTTNTIVKDSISRFRN, the amyloid nucleation score came out at 0.183 ± 0.29.
As for RLVRIW, the entry is “inactive”.
To RLVVNQHSPDKP belongs “inactive”; to RLWHLLFLHNRYHVVFNSIL, “inactive”; to RLWWS, -0.186 ± 0.98.
With RLYYRLQTKQAVWCNHPAPT, the amyloid nucleation score result was “inactive”.
With RMFNDSLNRV, the amyloid nucleation score entry was “inactive”.
RMILFFVARSSKMGIGTFGF gave an amyloid nucleation score of 0.868 ± 0.21.
To RMLDG belongs “inactive”.
To RMMCARIFRVSWLSSCLEGG belongs “inactive”.
With RMNMCMWLAWDSPWYIMGY, the amyloid nucleation score result was “inactive”.
As for RMPAFLCGYC, the entry is “inactive”.
Consider RMRKSFLFVWIDFILKR, for which the amyloid nucleation score result was “inactive”.
In the case of RMRLSWVMHSV, the amyloid nucleation score result is “inactive”.
For RMTVKQMLYHDWCTVRPSYC, the amyloid nucleation score entry was “inactive”.
Turning to RMVDFADF, the amyloid nucleation score result was “inactive”.
As for RNCQRESGTLYNYHVARS, the entry is “inactive”; as for RNFGYIDSKLWP, “inactive”.
To RNKHYVGRQSVSDSRVLSIV belongs “inactive”.
Consider RNKLALVLKLAHSI, for which the amyloid nucleation score entry was “inactive”.
To RNKVHRNG belongs “inactive”; to RNLLRSTLKGYFWYSCNVDV, “inactive”; to RNMEPDASVATV, “inactive”.
For RNNSNEKSFLRQSYYHCDCF, the amyloid nucleation score stood at 2.73 ± 0.07.
To RNQFWTWYGVSMLSNRQHGK belongs “inactive”; to RNRWPLPRYICRFKGFSHVV, “inactive”.
To RNSMGVILKVCLGRN belongs 1.66 ± 0.091; to RNSVFLCKGIQVYLVLVIVV, “inactive”; to RNVTRGYYMYFKRMVRHYWG, “inactive”.
On to RNWLMANS, for which the amyloid nucleation score result was “inactive”.
For the substance RPGYHSVVKHAKRLVEVNR, the amyloid nucleation score result is “inactive”.
As for RPHRAWALAVRVASDVCQNS, the figure is 1.11 ± 0.11; as for RPKPNRSRTIASQLETKSGW, -0.727 ± 1.1; as for RPKTTH, “inactive”.
As to RPRNLSLASYTDSVMRFGLS, the amyloid nucleation score result was “inactive”.
In the case of RPYGFKAIVYGQCR, the amyloid nucleation score entry is “inactive”.
Turning to RPYSNQGGTLITSAVLGLTK, the amyloid nucleation score entry was “inactive”.
For the substance RQCGVVIKFLMISTLISSIA, the amyloid nucleation score entry was “inactive”.
With RQILSFWP, the amyloid nucleation score entry is “inactive”.
As for RQLMRSDPAMGTICERY, the entry is “inactive”; as for RQNVWTLVPLVKFRLSNTQT, “inactive”.
On to RRAMIGIFSITVRFADNGWK, for which the amyloid nucleation score entry is “inactive”.
As for RRFKQCNHILACR, the entry is “inactive”; as for RRFVNVLGMHC, 0.693 ± 0.16.
On to RRLSSHLFMLWYMVR, for which the amyloid nucleation score entry was “inactive”.
For the substance RRMPLWEVGFSQASLTRQ, the amyloid nucleation score entry is “inactive”.
To RRNHMEFWTCSKYPRGLCGI belongs “inactive”; to RRVFHQAFSGWSDLCIQRSG, “inactive”.
RRVGSWTYVSFSDGI gave an amyloid nucleation score of 0.239 ± 0.41.
To RRVLTARDWVCH belongs “inactive”; to RRVMIALRYRRYGEFTEAYP, “inactive”; to RRYEFLGGTEGSARRLDSKP, “inactive”.
To RRYYLRV belongs “inactive”.
With RSCSCLSRDKYNYLLIDSLV, the amyloid nucleation score entry was “inactive”.
On to RSDSADLIKG, for which the amyloid nucleation score entry was “inactive”.
On to RSDVI, for which the amyloid nucleation score entry is “inactive”.
To RSELASLKGCDIELVFTYQR belongs “inactive”.
To RSFSLGRLSYYRGVTNILLA belongs “inactive”; to RSIHYSYWCIYGNIRDTVRS, “inactive”.
To RSIITGVKVDLFNLAVTVFL belongs 2.62 ± 0.063; to RSILLEGVLAFM, “inactive”.
RSILVFHSDRLKYGYLMIDV: the amyloid nucleation score result is “inactive”.
To RSKSF belongs “inactive”; to RSLFHSAFEFRFLGLTECTY, “inactive”; to RSLFSISAVIEICMLWSV, “inactive”.
